How the values were obtained:
p70^S6k = experiment: In vitro kinase assay (GST-S6 substrate) of N2 anti-p70^S6k antiserum immunoprecipitates from mitogen-treated 293 cells; format: cell-based, human; details: EGF 250 ng/ml or insulin 200 nM for 20 minutes
Protocol: (§1) 293 cells were treated with serum (10%), EGF (250 ng/ml), or insulin (200 nM) for 20 minutes, lysed, and the lysates were immunoprecipitated with 167 anti-p54^S6K antiserum or with N2 anti-p70^S6k antiserum. Phosphorimager™ counts from an in vitro kinase assay of the immunoprecipitates using GST-S6 as the substrate are shown.
(§2) Antibodies were made using standard techniques, such as those described in Harlow and Lane (Antibodies: A Laboratory Manual, Cold Spring Harbor Press, New York. 1988). The cells were starved and then stimulated with serum, EGF, or insulin, or left unstimulated. Rapamycin or wortmannin were also incubated with the cells prior to serum stimulation when indicated.
(§3) Lysates from 293 cells transfected with HA-p54^S6K or HA-p54^S6K KR were immunoblotted with anti-HA Ab. (FIG. 3B bottom left panel). […] This is of interest since a majority of the p70^S6k phosphorylation sites are conserved in p54^S6K (FIG. 1B). […] Finally, the activation kinetics of p54^S6K and p70^S6k were compared.

p54^S6K = experiment: In vitro kinase assay (GST-S6 substrate) of 167 anti-p54^S6K antiserum immunoprecipitates from mitogen-treated 293 cells; format: cell-based, human; details: EGF 250 ng/ml or insulin 200 nM for 20 minutes
Protocol: as §1, §2, §3

| Substance | p70^S6k kinase activity (activation by mitogen) (p70^S6k) | p54^S6K kinase activity (stimulation by mitogen) (p54^S6K) |
| --- | --- | --- |
| insulin | strongly activated | stimulated |
| EGF | only mildly activated | to a small degree |

Source: patent US6372467B1, “P54s6k and p85s6k genes, proteins, primers, probes, and detection methods” (President and Fellows of Harvard College, priority 1998, dated 2002)
